Results from the DeepSol protein solubility set.

Test: soluble on expression in E. coli; label from the status in PepcDB or PDB records

| Sequence | soluble on expression in E. coli |
| --- | --- |
| MGSDKIHHHHHHMIGRKRKYEDPHIRSFHELLSGHNPVLYKKEDLLAYDCDGFTIHKHLPKAVVFPENTREVASIVRYCHDHNLPFLARGAGTGLSGGAIPINGEVIISLVRMKRLLEVDLKNRRAIVEPGYVNLKLTQSIEDKGYYYAPDPSSQYCCTIGGNVAENAGGAHCLKYGVTTNHILGMEVVLPNGDIVEIGKAGILDEPGYDLLGLMTGSEGTLGIVTKITVRILKHPEAKQTVLAYFDKVSDASHTVSDIISEGIVPAALEMMDRIAMEGVEAAAFPIGHLLDAEAVLLIEVDGISAGMDQQIERILTVCRKHHVREVKDEMVGEPKNRLWCHGCHLTRLPRTRWSDPADKASGRAFNDSKNQRNIRATNRKYFSRR | not soluble |
| MGSDKIHHHHHHMIIDEISLFILDMDGTLTLEPSSWDYVHRRLGINNHSVTRLYRNRYINYYCFFQSDIKAWLHKYPNLKKEKVVEFLREVPIRHGADELINVLRKNGIRTAVISGGISWLFDIISERSKIDYNFSNEIFTDEYGYIVPEGKVRVIPEEKDLVVRKIQEELGIGKDQTASVGDEMENDRIHRYSKYRFIISKKARDNLIPIPSGDLEDLLRILE | not soluble |
| MGSDKIHHHHHHMIILGIHDGHDAGAVLLNDEEIYAVNEERLNRVKKYRGFPELSIRKVLEMSGTEPDDVDVIAIAGLFRRQKRLLELEHKLKSIFGPKFKEKAIFVEHHLAHASSAYYSSGLRDAVVLTIDAAGDGLSSTVSIAKDGQMFRIAQSTYIDSLGDFYASVTELLGFKPMRHEGKVMSLAAYGNPRYELSAIIELNGLTFENKLKVIGTEATKKLAEFFEFPLEKAKEVSSNLKRGIMDNELEKKAIEIAASAQAHLERLIEEMGLELKKYELPIAYAGGVAQNVKANAILRRIFGDIWIFPAMDDAGLAFGAAIYVKAQMELLFGKWKPFKLKHVFLGPSYSPEEIEEILKREGLEYEEVDVPSFVADSLVEGKLVGLFQGRLEYGPRALGNRSILADPRNEKVREKLNLALRRDVFQPFAPSILEERFPDYIEDLTGEPNRFMTMSYLASEEFMEVAPAVVHIDGTTRPQSVPKDLGTYYKIIRRFEKRTGVGAVLNTSFNMHGEPIVCSPLDAIRTAKSAKLDVLLLERFGVYIV | not soluble |
| MGSDKIHHHHHHMIIPHRKPCIESQIKTSGNLDELKMIINDLLYSEKEIQILPSGNSAIHIASEIVSKLNPNSKTLIPDMGGWKGFETYSKLSGLSIEKLKTNLGVVNLEILEEKIKECSAKSLFLTSLAGYLAEQPLKEIAKICSENDCLFIEDVSGKIGGDCGYGDMVVCSTGSPKIINCEYGGFLGFSKKINENLKDKHLKEDIKNLLKTYKMPDIYGKMIEETLISKKSYELCIKFSNIVKENMENAYFKDSQGVSVFLSYENPKEIAKNIDKSVKLNNGKSILTMCPLYERILRKGVVLEIKKMDIHKISENEIYEILNFF | not soluble |
| MGSDKIHHHHHHMIIRAGYNIAFQCFQETPINLLLSVHPSRAQHVIGEHVIKFSPDVPSHDFTDMFGNVCTRIVAPAGRIDISNDFLIEDTGLPDEVAPGAREIPVAELPDEVMVYLLGSRYCDTDKLATLAWSMFGGIPSGWQRVQAIVDYVHNHITFGYQFARNDRTASEGHAEQIGVCRDFAHLAVTLCRCMNIPARYCTGYLGDIGVPQDPAPMDFSAWFEVYLDGRWYTFDARHNHPRIGRIVIARGRDAADVAISTSFGTANLLNFEVITHEVTDQAAVTDARLQKVA | not soluble |
| MGSDKIHHHHHHMIKALNIVTKTGTELQGALFKAAHATTVLIAITGVHGNFYSNPFYVNIGKTLMAAGIDFIYAQTRDAFNQVVSLNHLTGKKELVGSWSEQFDDANEDIAAYLSYAEENQYQHIILGGHSLGANKVIYYLANHADVNVTKFLLLSPANLKRLTDMVSLSERNIIQKQIAAGNSNQLLPFELFGWLPCTAKTADQWLNSGILDNVHSDLRADFSQIERIRLSGAMVIGTLDTFTYGDPIKYLKTINAHFLSHAENDLVFIQKTGHTYQNKDQKLANEILKLIKNWSLGGN | not soluble |
| MGSDKIHHHHHHMILDPILDMFRGKAVTIPPLDGAFRPNTRLDDAPTFAELTEPDNLLADGGRLLATSGNAIYSLAAGAEPKVIETFPSPITAQALAPSGDLTVALESGKLLTSGKEVSLPADLSCITALAYAEDGTLWLANGSAEHAPSQWAADLMKKGASGSLWKRDATGGAFRKVAGALAFPYGLLPLGGDVLVSESWRHQLIRFDGATGNRSTVLTHLPGYPARLASAGDGGAWLALFAPRNRLIEFVLQETHYRQDMIDQVPPAYWIAPALASNRSFLEPLQCGGIRTMGIHKPWSPSRSYGLVVRLDARMQPQFSLHSRANGTRHGICSVVEKAGRLFIASKGGDCVLDAGGF | not soluble |
| MGSDKIHHHHHHMILDTAPHISSVGQVKEFFLARQPILDQNQNLIAYELLFRRAGVRAPVSAEDTRGAASIIAHTSELGIENVTGSALGFFNVNSTLLMGDLVNFLPAEKVVFEFPQTDKITPELVRRVAELAKAGYRFALDDVITLSEYIKPLLPFVEIIKIDTSVMTYADLAMLVRQFKQARKVLLADKVETLEQFQNCHELGFDYYQGYYFAKPALLSGKKLATSQLAIMELMTLVARDADTIEIEQRIKKEVSLCLSLLRLVNTPAMGVTKSIHSLSEALMVLGRRQLQRWLQIQIYVGPDPQIQFGSPLLLLAATRGKLLELVAQKLQPANRSMADIAFTVGILSLLDALFGQHMERILRQIVLSEEITEALLYRTGFYGDLLKLAEYLEKPGEAGRLLVPLLARLGLPIEELYPFQLEAFEWSNSLLPTL | not soluble |
| MGSDKIHHHHHHMILKHRRPNIYGLMNKEGNKEEVEMIINELLNRDYKITFLPSGSSAVFLSMWIAKIYSNEISIPDMGGWQGFLKFPKLLNLKNNMIETNLGIIDLEKLDESLKENSSLILTSLAGYLAPQPLKEIKKLCEEREVLFIEDISGKIGGDCGYGDIVVCSTGTPKILNCEYGGFLGISKEIEEKLGNALNDIKILSKTYKTINYFGLLKEELLNAKKTYKKYVEASKIIKDEIENAYFREFEGISVFIECDNPKNISKKINSLIKLDNRKSITTICPNYDRILKNGIVFETKKIDISELNREVINEIIIALSSIL | not soluble |
| MGSDKIHHHHHHMIMNNHRMLPDQDAWEPWSPAELSRRLSGISRPWCIVGGWALDLWHGSTMREHDDLEFTVLREDLEIFRRELSEMEFYTVNDGVLERLPPDRQPASEIFQIWCFDRTAKCWRVDMMIEPGTDDTWAYKRNPEITRPRTDMVALTADGIPYLNPSAVLLFKAKHRRPKDEQDFVNAHPKLLLSERRWLRNCLELLHPGHEWAQAL | not soluble |
| MGSDKIHHHHHHMIMSEKSIVQEARDIQLAMELINLGARLQMLESETQLSRGRLIRLYKELRGSPPPKGMLPFSTDWFMTWEQNIHASMFCNAWQFLLKTGLCSGVDAVIKAYRLYLEQCPQPPEGPLLALTRAWTLVRFVESGLLELSSCNCCGGNFITHAHQPVGSFACSLCQPPSRAVKRRKLSRDAADIIPQLLDEQIEQAV | not soluble |
| MGSDKIHHHHHHMINCIIVEDAPLAVDKLKNFISKVPLLDLAGTFDNGLDAFDFLQSNTIDLLFLDIQMEQFTGLQLLQALHTRPHIIIVSAYGEYAVQGFEYDVTDYLLKPYSFERFLKAVNKVQTEMASNPPAQPLPKDYIFLKTEYRMVRINLCDILYIEGKGAYLHVITDTTRIMTLLSFKEIESLLPAKQFIRIHKSYLIAINKIDNIERNVVKIANMRIPIGKSYLKDFYLRLQ | not soluble |
| MGSDKIHHHHHHMINELKKTKSRSEIKREQILHSAIELFCVQGFPNTSMDEVAKLAGVSKQTVYAHFGSKDDLFVAAIESRCIAHQLTGDLLFDPKHPEVSIMRFSQQFGEMIVSHETMAVFKTCVAQAESHPELPRLFFNAGPKHVLGLLSGFLQLVDKQGGYHFPKPHDSAIRLCLMLFGELKLRLELGLEVEELRLSRDAYIEETAQMFLRAHRV | not soluble |
| MGSDKIHHHHHHMINHHPKFELIQAFVNGDLPASLSAGIAIHADMCPVCQQTIAQFTEQVAENSFEEEYLDRFIIDDNEALEAIATIDFDHMIDNIVESSDIAVVVPKVEKTVSFNDTTYTLPAALNSMEMGKHAQIGKLTRARIQLNENEIHSSLLHIQPGGGVPEHTHKGFELTVLLAGSFHDESGEYVKGDFIMLDSSHQHHPISSNGCLCYTVANDALHFTHGINKLLNPIGSFIY | not soluble |
| MGSDKIHHHHHHMIPLEHRYAQIEKAITYIDENFRAHPSVDEIAQNVGMSKYHFIRVFKEYAGVTPKQFLHCVTLNYAKEHIKESRSILESSLDIGLSSSSRLHELFVNLIGVTPREWRERGRGVLVTYGFGQTPFGEALIGFTDKGICYLGLMSDNKLEILGRFYELWGEAILEYDEKAAQKYLGYIFDRGEEGSPWNLGTNSQVNAWKALINLSRHLEDRVEGLIPCCGIISRSGAMSGHRWRIERGAALSLLDDIREKGSFGFSDNIDL | not soluble |
| MGSDKIHHHHHHMIQSVRIKNFKNFKNTKIDGFTKLNIITGQNNAGKSNLLEALYYLVGKSMHPCTNVLEIYDNIRKEPLTSESKSLMFYGLDTKEEIQIVTTLDNNQTLDLQIKFIASENQKVIESQIIPTAEQTQMSSQLNFTLKKNNEEIYNDHLNIAKVPNFPPIPNQSGYNRQFKNFDSNQLQKLLPFESAVIIPSDVVYRQAHMIQAVSKICSNNQLEEELNKHLNQFDNNIQAISFNTNNQLKLKVKDIKEKVPLSVFGDGLKKYLHIVSAFMADNAKTIYIDEVENGLHFSRMRLLLKNTIDFINNNKDGNLQVFMTTHSQEFIEILDQVIREKDFAHQTKLFCLKQDDQYVIPRTYYGENLEYYFENEENLFG | not soluble |
| MGSDKIHHHHHHMIVNQANLQGIYKSFNTIFNQAFDAAPSQWPLVAMQVPSTGRSVDYKWLGDFPMMREWLGDRVLKDLSAFKYEITNKDYESTIEVDRNDIDDDQIGVYTPMIQGLAQAAKVHPDILVFALLKAGFDTGCFDGQYFFDSDHSVNGASVSNTGGGDGTPWYLLDLSRPIKPIVLQIRKRPQFVAMDKPDDENVFMRKKFRYGVDDRKNVGYGLWQLAYGSKQTLDATNYAAARAAMMAFTNDEGVPLGITPTHLVVPPTLESNGRTVVEAQFDANGASNVWYNTAKLVVVPWLA | not soluble |
| MGSDKIHHHHHHMIVVLKPGSTEEDIRKVVKLAESYNLKCHISKGQERTVIGIIGDDRYVVADKFESLDCVESVVRVLKPYKLVSREFHPEDTVIDLGDVKIGNGYFTIIAGPCSVEGREMLMETAHFLSELGVKVLRGGAYKPRTSPYSFQGLGEKGLEYLREAADKYGMYVVTEALGEDDLPKVAEYADIIQIGARNAQNFRLLSKAGSYNKPVLLKRGFMNTIEEFLLSAEYIANSGNTKIILCERGIRTFEKATRNTLDISAVPIIRKESHLPILVDPSHSGGRRDLVIPLSRAAIAVGAHGIIVEVHPEPEKALSDGKQSLDFELFKELVQEMKKLADALGVKVN | soluble |
| MGSDKIHHHHHHMIYDMSGIYLSSLTGIRNNSSSSSNSLDKEAFLRLLLQELEMQDPLEPMETKDMISQLSQLTSLEQITNLTSAVKDFVEAQTSVSPAQLASLIGKYVVVRNNTVNLVGGQSDSIIFNVDEDAHVVVQILDENGKLVRTEDLGTVQVGVHAWQWDGRDDNGISVEDGSYTYRVYKLTSSGLEEIGGMEGGVVEAVQIKDGKGFVLVNGSLYPVDSILEISQEGDA | not soluble |
| MGSDKIHHHHHHMKAGISLSLSLALSCSAVAQGQKISVPPVFNIFELVIRQDKNNAYDSLAEKNITASVTGEPGTLAMYSAKKKTNPSVTYMYEIYADSDAYDKHLNSTSYKEFLRNSPDILETSQTRRIDVIPQFLADKKIVQNDSTINNFVIVDVKPELGQAFRHVVLPEMAQSIEREEGVLAMYAAIDKANRNRWYFYEIYASENAYQAHRLTPHFKAYINQTAEMTTYKEAIDIKPGLLMNKGGMRYENE | not soluble |
